Reference: article PMC11643329, “DNA sequence-induced solid phase transition as a solution to the genome folding paradox” (Research Square, 2024)

T1: full length Halo-Ldb1 (Ldb1 1-411) (UniProt P70662 1-411, Halo-tag ligand Coumarin dye on the Halo tag (incubated at 1:10 molar equivalent))
T1 construct: Construct order as printed: 6x His - Halo tag - Ldb1 1-411 - stop codon in pET-duet; The EMSA legend says only 'full-length Ldb1'; This is the only full-length Ldb1 construct that the methods describe; also called full length Ldb1; FL Halo-Ldb1; source: E. coli BL21, purified (HisTrap, dialysis); not shown: Halo tag, N-terminal, kept
T1 sequence (looked up): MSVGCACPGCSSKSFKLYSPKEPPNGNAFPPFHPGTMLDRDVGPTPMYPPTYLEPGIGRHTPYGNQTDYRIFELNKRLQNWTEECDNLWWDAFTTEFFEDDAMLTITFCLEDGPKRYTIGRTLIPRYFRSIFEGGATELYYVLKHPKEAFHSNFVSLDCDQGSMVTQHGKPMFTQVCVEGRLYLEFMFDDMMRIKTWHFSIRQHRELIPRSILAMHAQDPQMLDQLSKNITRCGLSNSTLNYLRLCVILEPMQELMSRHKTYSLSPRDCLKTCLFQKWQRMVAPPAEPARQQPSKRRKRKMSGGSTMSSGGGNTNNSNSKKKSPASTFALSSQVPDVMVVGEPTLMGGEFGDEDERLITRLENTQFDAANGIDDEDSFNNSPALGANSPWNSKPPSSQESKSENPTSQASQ

B1: truncated Sumo-Lhx2 (Lhx2 1-350, lacks the C-terminal intrinsically disordered region) (domain or fragment, UniProt Q9Z0S2 1-350, looked up)
chain: MLFHSLSGPEVHGVIDEMDRRAKSEAPAISSAIDRGDTETTMPSISSDRAALCAGCGGKISDRYYLLAVDKQWHMRCLKCCECKLNLESELTCFSKDGSIYCKEDYYRRFSVQRCARCHLGISASEMVMRARDLVYHLNCFTCTTCNKMLTTGDHFGMKDSLVYCRLHFEALLQGEYPAHFNHADVAAAAAAAAAAKSAGLGSAGANPLGLPYYNGVGTVQKGRPRKRKSPGPGADLAAYNAALSCNENDAEHLDRDQPYPSSQKTKRMRTSFKHHQLRTMKSYFAINHNPDAKDLKQLAQKTGLTKRVLQVWFQNARAKFRRNLLRQENTGVDKTSDATLQTGTPSGPA
notes: Lhx2, LIM-homeodomain transcription factor, residues 1-350 followed by a stop codon; Construct order as printed: 6xHis - Sumo - strep II - Lhx2 in pET28b; also called truncated Lhx2; source: E. coli BL21, purified (HisTrap, HiTrap Heparin, dialysis); not shown: Sumo, N-terminal, kept
B2: Ldb1 Lim interaction domain (Ldb1-LID), Sumo-Ldb1 320-375 (domain or fragment, UniProt P70662 320-375, looked up)
chain: KKKSPASTFALSSQVPDVMVVGEPTLMGGEFGDEDERLITRLENTQFDAANGIDDE
notes: Construct order as printed: 6x His - Sumo - Ldb1 320-375 - stop codon in pET28; also called truncated Ldb1 protein; Sumo-Ldb1-LID domain; source: E. coli BL21, purified (HisTrap, Superdex 75 size exclusion); not shown: Sumo, N-terminal, kept

Assays:
[1] = biological target: T1, full length Halo-Ldb1 (Ldb1 1-411); assay: native gel or EMSA; purified proteins mixed with 2000 fmol ATTO-488 labelled composite motif DNA probe; Ldb1 added to DNA-bound Lhx2 and/or Ebf1; 10 mM HEPES, 150 mM NaCl, 5% glycerol, 0.5% NP-40, 1 mg/mL BSA, 0.1 mg/mL poly dI-dC; 30 minutes at 4C; 6% native gel; conditions: both partners purified
[2] = biological target: B1; assay: as above; conditions: both partners purified

binding result [1] | binding result [2] | Binder
binds |  | B1
 | binds | B2
